Measured values: patent US20200199204A1 (UNITED STATES OF AMERICA AS REPRESENTED BY THE SECRETARY …, published 2020)

Legend:
Assay in all cases: cell-based or functional assay
HIV-1 Env of CAP256.PI = HIV-1 Env of CAP256.PI (HIV-1)
HIV-1 Env of CAP256.SU = HIV-1 Env of CAP256.SU (HIV-1)
HIV-1 Env of 96ZM651.02 = HIV-1 Env of 96ZM651.02 (HIV-1)
HIV-1 Env of CAP210.E8 = HIV-1 Env of CAP210.E8 (HIV-1)
HIV-1 Env of CAP244.D3 = HIV-1 Env of CAP244.D3 (HIV-1)
HIV-1 Env of CAP45.G3 = HIV-1 Env of CAP45.G3 (HIV-1)
HIV-1 Env of DU156.12 = HIV-1 Env of DU156.12 (HIV-1)
HIV-1 Env of DU172.17 = HIV-1 Env of DU172.17 (HIV-1)
HIV-1 Env of DU422.01 = HIV-1 Env of DU422.01 (HIV-1)
HIV-1 Env of ZM109.4 = HIV-1 Env of ZM109.4 (HIV-1)
HIV-1 Env of ZM135.10a = HIV-1 Env of ZM135.10a (HIV-1)
HIV-1 Env of ZM197.7 = HIV-1 Env of ZM197.7 (HIV-1)
HIV-1 Env of ZM214.15 = HIV-1 Env of ZM214.15 (HIV-1)
HIV-1 Env of ZM233.6 = HIV-1 Env of ZM233.6 (HIV-1)
HIV-1 Env of ZM249.1 = HIV-1 Env of ZM249.1 (HIV-1)
HIV-1 Env of ZM53.12 = HIV-1 Env of ZM53.12 (HIV-1)
HIV-1 Env of 0260.v5.c36 = HIV-1 Env of 0260.v5.c36 (HIV-1)
HIV-1 Env of BG505.w6m = HIV-1 Env of BG505.w6m (HIV-1)
HIV-1 Env of KER2008.12 = HIV-1 Env of KER2008.12 (HIV-1)
HIV-1 Env of KER2018.11 = HIV-1 Env of KER2018.11 (HIV-1)
HIV-1 Env of MB201 = HIV-1 Env of MB201 (HIV-1)
HIV-1 Env of MB539.2B7 = HIV-1 Env of MB539.2B7 (HIV-1)
HIV-1 Env of Q168.a2 = HIV-1 Env of Q168.a2 (HIV-1)
HIV-1 Env of Q23.17 = HIV-1 Env of Q23.17 (HIV-1)
HIV-1 Env of Q259.d2.17 = HIV-1 Env of Q259.d2.17 (HIV-1)
HIV-1 Env of Q461.e2 = HIV-1 Env of Q461.e2 (HIV-1)
HIV-1 Env of Q769.d22 = HIV-1 Env of Q769.d22 (HIV-1)
HIV-1 Env of Q842.d12 = HIV-1 Env of Q842.d12 (HIV-1)
HIV-1 Env of RW020.2 = HIV-1 Env of RW020.2 (HIV-1)
HIV-1 Env of UG037.8 = HIV-1 Env of UG037.8 (HIV-1)
HIV-1 Env of 6535.3 = HIV-1 Env of 6535.3 (HIV-1)
HIV-1 Env of AC10.29 = HIV-1 Env of AC10.29 (HIV-1)
HIV-1 Env of CAAN.A2 = HIV-1 Env of CAAN.A2 (HIV-1)
HIV-1 Env of PVO.04 = HIV-1 Env of PVO.04 (HIV-1)
HIV-1 Env of QH0692.42 = HIV-1 Env of QH0692.42 (HIV-1)
HIV-1 Env of REJO.67 = HIV-1 Env of REJO.67 (HIV-1)
HIV-1 Env of RHPA.7 = HIV-1 Env of RHPA.7 (HIV-1)
HIV-1 Env of SC422.8 = HIV-1 Env of SC422.8 (HIV-1)
HIV-1 Env of THRO.18 = HIV-1 Env of THRO.18 (HIV-1)
HIV-1 Env of TRJO.58 = HIV-1 Env of TRJO.58 (HIV-1)
HIV-1 Env of TRO.11 = HIV-1 Env of TRO.11 (HIV-1)
HIV-1 Env of WITO.33 = HIV-1 Env of WITO.33 (HIV-1)
HIV-1 Env of 191821.E6.1 = HIV-1 Env of 191821.E6.1 (HIV-1)
HIV-1 Env of 3016.V5.c36 = HIV-1 Env of 3016.V5.c36 (HIV-1)
HIV-1 Env of 6405.v4.c34 = HIV-1 Env of 6405.v4.c34 (HIV-1)
HIV-1 Env of C1080.c3 = HIV-1 Env of C1080.c3 (HIV-1)
HIV-1 Env of CM244.ec1 = HIV-1 Env of CM244.ec1 (HIV-1)
HIV-1 Env of CNE3 = HIV-1 Env of CNE3 (HIV-1)
HIV-1 Env of TH976.17 = HIV-1 Env of TH976.17 (HIV-1)

Measured: neutralization IC50

B1: CAP256-VRC26.02 (antibody, V domains shown)
VH: EVQLVESGGGVVQPGRSLRLSCAASQFSFGNYGMHWVRQAPGKGLEWVAAISFAGTKTNYADSVKGRFTISRDNSKNTVYLQMNSLRAEDTALYFCAKDIREYECEYWTSDYYDFGRPQPCIDSRGVVGTFDVWGQGTMVTVSS
VL: QSVLTQPPSVSAAPGQKVTISCSGSNSNIGNKDVSWYQQIPATAPKLLIYENNKRPSGISDRFSGSKSGTSATLAITGLQTGDEADYYCATWDGRVSVIGTGTNVIVLG
0.057 µg/mL: HIV-1 Env of 3016.V5.c36
0.043 µg/mL: HIV-1 Env of ZM53.12
7.98 µg/mL: HIV-1 Env of PVO.04
1.97 µg/mL: HIV-1 Env of ZM197.7
0.015 µg/mL: HIV-1 Env of CAP256.SU
2.03 µg/mL: HIV-1 Env of CM244.ec1
0.18 µg/mL: HIV-1 Env of KER2018.11
0.701 µg/mL: HIV-1 Env of ZM233.6
0.062 µg/mL: HIV-1 Env of CAP210.E8
> 50 µg/mL: HIV-1 Env of CAP256.PI | HIV-1 Env of 96ZM651.02 | HIV-1 Env of CAP244.D3 | HIV-1 Env of CAP45.G3 | HIV-1 Env of DU156.12 | HIV-1 Env of DU172.17 | HIV-1 Env of DU422.01 | HIV-1 Env of ZM109.4 | HIV-1 Env of ZM135.10a | HIV-1 Env of ZM214.15 | HIV-1 Env of ZM249.1 | HIV-1 Env of 0260.v5.c36 | HIV-1 Env of BG505.w6m | HIV-1 Env of KER2008.12 | HIV-1 Env of MB201 | HIV-1 Env of MB539.2B7 | HIV-1 Env of Q168.a2 | HIV-1 Env of Q23.17 | HIV-1 Env of Q259.d2.17 | HIV-1 Env of Q461.e2 | HIV-1 Env of Q769.d22 | HIV-1 Env of Q842.d12 | HIV-1 Env of RW020.2 | HIV-1 Env of UG037.8 | HIV-1 Env of 6535.3 | HIV-1 Env of AC10.29 | HIV-1 Env of CAAN.A2 | HIV-1 Env of QH0692.42 | HIV-1 Env of REJO.67 | HIV-1 Env of RHPA.7 | HIV-1 Env of SC422.8 | HIV-1 Env of THRO.18 | HIV-1 Env of TRJO.58 | HIV-1 Env of TRO.11 | HIV-1 Env of WITO.33 | HIV-1 Env of 191821.E6.1 | HIV-1 Env of 6405.v4.c34 | HIV-1 Env of C1080.c3 | HIV-1 Env of CNE3 | HIV-1 Env of TH976.17

B2: CAP256-VRC26.05 (antibody, V domains shown)
VH: EVQLVESGGGVVQPGRSLRLSCAASHFSLSSYGMHWVRQAPGKGLEWVTGISFAGTKTYYGDSVRGRFTVSRDISKNTLFLQMNSLRPDDTAMYYCARDQRYYECEEWASDYYDFGREQPCLDPRGVVGIFDLWGQGTMVTVSS
VL: QSALTQPPSVSAAPGQKVTISCSGNIGNNYVSWYQQVPGTAPKLLIYENNKRPSGIPDRFSGSKSGTSATLVITGLQTGDEADFYCGTWGGSLRTGGVLGTGTRVTVLG
> 50 µg/mL: HIV-1 Env of CAP256.PI | HIV-1 Env of 96ZM651.02 | HIV-1 Env of CAP244.D3 | HIV-1 Env of CAP45.G3 | HIV-1 Env of DU156.12 | HIV-1 Env of DU172.17 | HIV-1 Env of DU422.01 | HIV-1 Env of ZM135.10a | HIV-1 Env of ZM214.15 | HIV-1 Env of ZM249.1 | HIV-1 Env of 0260.v5.c36 | HIV-1 Env of BG505.w6m | HIV-1 Env of KER2008.12 | HIV-1 Env of MB201 | HIV-1 Env of MB539.2B7 | HIV-1 Env of Q168.a2 | HIV-1 Env of Q23.17 | HIV-1 Env of Q461.e2 | HIV-1 Env of Q769.d22 | HIV-1 Env of Q842.d12 | HIV-1 Env of RW020.2 | HIV-1 Env of UG037.8 | HIV-1 Env of 6535.3 | HIV-1 Env of AC10.29 | HIV-1 Env of CAAN.A2 | HIV-1 Env of QH0692.42 | HIV-1 Env of REJO.67 | HIV-1 Env of RHPA.7 | HIV-1 Env of SC422.8 | HIV-1 Env of THRO.18 | HIV-1 Env of TRJO.58 | HIV-1 Env of TRO.11 | HIV-1 Env of WITO.33 | HIV-1 Env of 191821.E6.1 | HIV-1 Env of 6405.v4.c34 | HIV-1 Env of C1080.c3 | HIV-1 Env of CNE3 | HIV-1 Env of TH976.17
0.007 µg/mL: HIV-1 Env of CAP256.SU
26.5 µg/mL: HIV-1 Env of ZM109.4
0.517 µg/mL: HIV-1 Env of CM244.ec1
0.023 µg/mL: HIV-1 Env of Q259.d2.17
0.012 µg/mL: HIV-1 Env of ZM53.12 | HIV-1 Env of KER2018.11
0.013 µg/mL: HIV-1 Env of CAP210.E8
0.003 µg/mL: HIV-1 Env of ZM233.6
44.4 µg/mL: HIV-1 Env of PVO.04
0.011 µg/mL: HIV-1 Env of 3016.V5.c36
0.113 µg/mL: HIV-1 Env of ZM197.7
